Measured values reported in paper PMC6458971.

Target: AviTagged clade B YU-2 gp140 trimers (HIV-1 clade B, strain YU-2 | not stated)
Assay: SEC

AviTagged clade B YU-2 gp140 trimers (domain or fragment)
stoichiometry N: 3
